In patent US20260209348A1 (University of California, published 2026):
Like-named read-outs stand apart in the source and are kept apart here.

Key:
human ROR2 [1] = target: T1, human ROR2 (human, UniProt Q01974 34-403, limits assumed); assay: SPR
Outline: (§1)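 Values are dissociation constants (Kd, nM) for binding to human ROR2, measured by surface plasmon resonance. The monoclonal antibodies tested were humanized anti-human ROR2 antibodies built from murine complementarity-determining regions placed into human acceptor frameworks, with a human IgG1 constant region. Antigen format, concentrations, temperature, buffer and replicates are not given.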

human ROR2 [2] = target: T1, human ROR2; assay: SPR; remark: listed apart in the source
Outline: as §1

recombinant ROR1 [3] = target: T2, recombinant ROR1 (Homo sapiens (Human), UniProt Q01973 30-406); assay: dot blot on nylon membrane, anti-human IgG-HRP
[4] = target: T3, recombinant mouse ROR2 (extracellular portion) (mouse, UniProt Q9Z138 34-403); assay: dot blot on nylon membrane, anti-human IgG-HRP
T3 construct: also called mROR2

[5] = target: T4, recombinant human ROR2 H349R (human, UniProt Q01974 34-403); assay: dot blot on nylon membrane, anti-human IgG-HRP
T4 construct: Human residue replaced with the mouse residue

[6] = target: T5, recombinant human ROR2 D354E (human, UniProt Q01974 34-403); assay: dot blot on nylon membrane, anti-human IgG-HRP
recombinant ROR1 [7] = target: T2, recombinant ROR1; assay: dot blot of arrayed recombinant proteins (key on the sheet)
[8] = target: T3, recombinant mouse ROR2 (extracellular …); assay: as above
[9] = target: T4, recombinant human ROR2 H349R; assay: as above
[10] = target: T5, recombinant human ROR2 D354E; assay: as above

T3 sequence (Q9Z138 other isoform, or with tags, fused parts or gaps limits assumed): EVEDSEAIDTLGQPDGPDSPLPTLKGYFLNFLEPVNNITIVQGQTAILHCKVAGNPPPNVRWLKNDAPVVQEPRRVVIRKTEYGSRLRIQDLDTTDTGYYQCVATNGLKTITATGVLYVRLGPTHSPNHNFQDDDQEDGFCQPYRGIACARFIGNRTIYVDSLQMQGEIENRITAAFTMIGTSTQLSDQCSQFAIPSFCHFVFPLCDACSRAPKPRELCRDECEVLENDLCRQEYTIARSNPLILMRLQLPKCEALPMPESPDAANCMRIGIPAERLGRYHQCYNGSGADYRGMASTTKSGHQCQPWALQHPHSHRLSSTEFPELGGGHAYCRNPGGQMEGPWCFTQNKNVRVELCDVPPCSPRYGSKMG
T4 sequence (Q01974 34-403 H349R limits assumed): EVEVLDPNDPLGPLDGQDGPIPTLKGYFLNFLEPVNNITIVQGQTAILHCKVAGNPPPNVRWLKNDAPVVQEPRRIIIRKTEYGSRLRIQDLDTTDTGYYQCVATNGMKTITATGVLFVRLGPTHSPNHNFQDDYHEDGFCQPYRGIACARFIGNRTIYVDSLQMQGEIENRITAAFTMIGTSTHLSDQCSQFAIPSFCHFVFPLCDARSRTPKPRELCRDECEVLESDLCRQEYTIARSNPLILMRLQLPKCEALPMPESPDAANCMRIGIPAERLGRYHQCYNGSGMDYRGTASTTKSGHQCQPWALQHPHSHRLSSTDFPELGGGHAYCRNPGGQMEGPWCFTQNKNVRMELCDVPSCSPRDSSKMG
T2 sequence (Q01973 30-406 limits assumed): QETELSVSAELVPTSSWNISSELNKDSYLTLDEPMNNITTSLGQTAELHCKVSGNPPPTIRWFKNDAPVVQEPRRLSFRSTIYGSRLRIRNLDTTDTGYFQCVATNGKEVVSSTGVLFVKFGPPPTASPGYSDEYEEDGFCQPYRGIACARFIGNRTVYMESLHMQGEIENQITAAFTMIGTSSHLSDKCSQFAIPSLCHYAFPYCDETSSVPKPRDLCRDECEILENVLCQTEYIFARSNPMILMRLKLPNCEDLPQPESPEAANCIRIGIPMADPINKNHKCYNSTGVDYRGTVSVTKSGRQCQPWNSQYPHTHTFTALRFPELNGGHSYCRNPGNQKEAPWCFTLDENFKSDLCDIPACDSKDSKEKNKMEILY
T5 sequence (Q01974 34-403 D354E limits assumed): as the sequence (Q01974 34-403 H349R limits assumed) above, with R316H, D321E counted along it
T1 sequence (Q01974 34-403 limits assumed): as the sequence (Q01974 34-403 H349R limits assumed) above, with R316H counted along it

Binder | Kd (human ROR2 [1]) [nM] | Kd (human ROR2 [2]) [nM] | binding result (recombinant ROR1 [3]) | binding result [4] | binding result [5] | binding result [6] | binding result (recombinant ROR1 [7]) | binding result [8] | binding result [9] | binding result [10]
h6E6-057 (antibody, human IgG1, V domains shown, human IgG1; also called clone 57) VH: EVQLVESGGGLVKPGGSLRLSCAASGFTFSHYGVSWVRQAPGKGLEWVSTISSGGGYTHYVASVKGRFTISRDNAKNSLYLQMNSLRAEDTAVYYCARHPRDFSYALDYWGQGTTVTVSS VL: EIVMTQSPATLSVSPGERATLSCKASQDVGHYVAWYQQKPGQAPRLLIYWASTRATGIPARFSGSGSGTEFTLTISSLQSEDFAVYYCQQYNIYPWAFGQGTKVEIK | 0.463 | 0.463 | no binding | no binding | no binding | no binding | – | – | – | –
h6E6-058 (antibody, human IgG1, V domains shown, human IgG1; also called clone 58) VH: EVQLVESGGGLVKPGGSLRLSCAASGFTFSVYGLSWVRQAPGKGLEWVSTISSGGGYTQYAPSVKGRFTISRDNAKNSLYLQMNSLRAEDTAVYYCARHPRDFSYAFDYWGQGTTVTVSS VL: EIVMTQSPATLSVSPGERATLSCKASQDVGHYLAWYQQKPGQAPRLLIYWASTRATGIPARFSGSGSGTEFTLTISSLQSEDFAVYYCQQYNIYPWTFGQGTKVEIK | 0.187 | 0.187 | – | – | – | – | no binding | no binding | no binding | no binding
h6E6-063 (antibody, human IgG1, V domains shown, human IgG1; also called clone 63) VH: EVQLVESGGGLVKPGGSLRLSCAASGFTFSAYGTSWVRQAPGKGLEWVSTISSGGGYTYYAASVKGRFTISRDNAKNSLYLQMNSLRAEDTAVYYCARHPRDFSYAIDYWGQGTTVTVSS VL: EIVMTQSPATLSVSPGERATLSCRASQDVGHYLAWYQQKPGQAPRLLIYWASTRATGIPARFSGSGSGTEFTLTISSLQSEDFAVYYCQQYNIYPWTFGQGTKVEIK | 0.475 | 0.475 | – | – | – | – | no binding | no binding | no binding | no binding
h6E6-066 (antibody, human IgG1, V domains shown, human IgG1; also called clone 66) VH: EVQLVESGGGLVKPGGSLRLSCAASGFTFSAYGSSWVRQAPGKGLEWVSTISSGGGYTHYAPSVKGRFTISRDNAKNSLYLQMNSLRAEDTAVYYCARHPRDFSYAHDYWGQGTTVTVSS VL: EIVMTQSPATLSVSPGERATLSCKASQDVGHYVAWYQQKPGQAPRLLIYWASTRHTGIPARFSGSGSGTEFTLTISSLQSEDFAVYYCQQYNIYPWTFGQGTKVEIK | 0.353 | 0.353 | no binding | no binding | no binding | no binding | – | – | – | –
h6E6-068 (antibody, human IgG1, V domains shown, human IgG1; also called clone 68) VH: EVQLVESGGGLVKPGGSLRLSCAASGFTFSSYGISWVRQAPGKGLEWVSTISSGGGYTHYAHSVKGRFTISRDNAKNSLYLQMNSLRAEDTAVYYCARHPRDFSYALDYWGQGTTVTVSS VL: EIVMTQSPATLSVSPGERATLSCKASQDVGHYLAWYQQKPGQAPRLLIYWASTRATGIPARFSGSGSGTEFTLTISSLQSEDFAVYYCQQYNIYPWTFGQGTKVEIK | 0.362 | 0.362 | no binding | no binding | no binding | no binding | – | – | – | –
h6E6-070 (antibody, human IgG1, V domains shown, human IgG1; Alexa647 conjugate in flow cytometry; also called clone 70) VH: EVQLVESGGGLVKPGGSLRLSCAASGFTFSQYGHSWVRQAPGKGLEWVSTISSGGGYTHYAHSVKGRFTISRDNAKNSLYLQMNSLRAEDTAVYYCARHPRDFSYANDYWGQGTTVTVSS VL: EIVMTQSPATLSVSPGERATLSCRASQDVGHYLAWYQQKPGQAPRLLIYWASTRATGIPARFSGSGSGTEFTLTISSLQSEDFAVYYCQQYNIYPWTFGQGTKVEIK | 0.165 | 0.165 | no binding | – | no binding | no binding | – | no binding | – | –
h6E6-072 (antibody, human IgG1, V domains shown, human IgG1; also called clone 72) VH: EVQLVESGGGLVKPGGSLRLSCAASGFTFSQYGHSWVRQAPGKGLEWVSTISSGGGYTHYADSVKGRFTISRDNAKNSLYLQMNSLRAEDTAVYYCARHPRDFSYAQDYWGQGTTVTVSS VL: EIVMTQSPATLSVSPGERATLSCKASQDVGHYLAWYQQKPGQAPRLLIYWASTRHTGIPARFSGSGSGTEFTLTISSLQSEDFAVYYCQQYNIYPWTFGQGTKVEIK | 0.38 | 0.38 | no binding | no binding | no binding | no binding | – | – | – | –
h6E6-077 (antibody, human IgG1, V domains shown, human IgG1; also called clone 77) VH: EVQLVESGGGLVKPGGSLRLSCAASGFTFSHYGTSWVRQAPGKGLEWVSTISSGGGYTHYAPSVKGRFTISRDNAKNSLYLQMNSLRAEDTAVYYCARHPRDFSYAIDYWGQGTTVTVSS VL: EIVMTQSPATLSVSPGERATLSCKASQDVGHYVAWYQQKPGQAPRLLIYWASTRATGIPARFSGSGSGTEFTLTISSLQSEDFAVYYCQQYNIYPWTFGQGTKVEIK | 0.155 | 0.155 | no binding | no binding | no binding | no binding | – | – | – | –
h6E6-102 (antibody, human IgG1, V domains shown, human IgG1; also called clone 102) VH: EVQLVESGGGLVKPGGSLRLSCAASGFTFSKYGLSWVRQAPGKGLEWVSTISSGGGYTHYVESVKGRFTISRDNAKNSLYLQMNSLRAEDTAVYYCARHPRDFSYASDYWGQGTTVTVSS VL: EIVMTQSPATLSVSPGERATLSCKASQDVGHYVAWYQQKPGQAPRLLIYWASTRATGIPARFSGSGSGTEFTLTISSLQSEDFAVYYCQQYNIYPWTFGQGTKVEIK | 0.319 | 0.319 | no binding | no binding | no binding | no binding | – | – | – | –
h6E6-107 (antibody, human IgG1, V domains shown, human IgG1; also called clone 107) VH: EVQLVESGGGLVKPGGSLRLSCAASGFTFSTYGASWVRQAPGKGLEWVSTISSGGGYTHYAPSVKGRFTISRDNAKNSLYLQMNSLRAEDTAVYYCARHPRDFSYALDYWGQGTTVTVSS VL: EIVMTQSPATLSVSPGERATLSCKASQDVGHYVAWYQQKPGQAPRLLIYWASTRATGIPARFSGSGSGTEFTLTISSLQSEDFAVYYCQQYNIYPWTFGQGTKVEIK | 0.422 | 0.422 | no binding | no binding | no binding | no binding | – | – | – | –
h6E6-116 (antibody, human IgG1, V domains shown, human IgG1; Alexa647 conjugate in flow cytometry) VH: EVQLVESGGGLVKPGGSLRLSCAASGFTFSTYGVSWVRQAPGKGLEWVSTISSGGGYTHYAGSVKGRFTISRDNAKNSLYLQMNSLRAEDTAVYYCARHPRDFSYALDYWGQGTTVTVSS VL: EIVMTQSPATLSVSPGERATLSCRASQDVGHYLAWYQQKPGQAPRLLIYWASTRATGIPARFSGSGSGTEFTLTISSLQSEDFAVYYCQQYNIYPWTFGQGTKVEIK | 0.348 | 0.348 | no binding | no binding | no binding | no binding | – | – | – | –
